According to paper doi:10.1101/2022.01.16.476540 (bioRxiv, 2022):
Where a chain is given by its changes, count along the chain named. Names may count otherwise.

B1: Snc2 WT (1-115) (natural protein)
chain: MSSSVPYDPYVPPEESNSGANPNSQNKTAALRQEIDDTVGIMRDNINKVAERGERLTSIEDKADNLAISAQGFKRGANRVRKQMWWKDLKMRMCLFLVVIILLVVIIVPIVVHFS
B2: Cy3-labeled Sec9 (A442C) (domain or fragment)
chain: ARQQQEEDEAVDEIKQEIKFTKQSSVCSTRNTLKMAQDAERAGMNTLGMLGHQSEQLNNVEGNLDLMKVQNKVADEKVAELKKLNRSILAVHVSNPFNSKRRRREREEQLKNRKIEEKLMREQTSQQLSQSTQRIEGAMNANNNISEVRERYQRKNVLEKAKRYQFENDEEDDEMELEIDRNLDQIQQVSNRLKKMALTTGKELDSQQKRLNNIEESTDDLDINLHMNTNRLAGIR
B3: Sec9 (a.a. 416-651) (domain or fragment)
chain: B2 chain with C27A
B4: Habc domain-truncated Sso1 (a.a. 185-290) (domain or fragment)
chain: EAKTALAEVQARHQELLKLEKSMAELTQLFNDMEELVIEQQENVDVIDKNVEDAQLDVEQGVGHTDKAVKSARKARKNKIRCWLIVFAIIVVVVVVVVVPAVVKTR

How the values were obtained:
[1] = biological target: T1, binary Q-SNARE complex (full-length Sso1: Sec9) on vesicle membranes (yeast (S. cerevisiae), UniProt P32867;P40357); experiment: single-vesicle docking
T1 sequence 1: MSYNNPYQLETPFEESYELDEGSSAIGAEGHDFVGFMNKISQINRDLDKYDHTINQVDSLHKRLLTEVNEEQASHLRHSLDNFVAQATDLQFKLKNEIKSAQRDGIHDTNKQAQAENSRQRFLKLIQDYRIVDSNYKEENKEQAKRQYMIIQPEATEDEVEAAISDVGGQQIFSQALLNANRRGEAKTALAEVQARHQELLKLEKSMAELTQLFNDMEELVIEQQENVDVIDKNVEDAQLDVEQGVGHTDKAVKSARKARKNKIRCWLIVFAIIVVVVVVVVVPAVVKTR
T1 sequence 2: B2 chain with C27A

[2] = biological target: T2, binary Q-SNARE complex (Habc-truncated Sso1: Sec9) on vesicle membranes (yeast (S. cerevisiae), UniProt P32867;P40357); experiment: single-vesicle docking
T2 sequence 1: B4 chain
T2 sequence 2: B2 chain with C27A

[3] = biological target: T3, Full length Sso1 WT (a.a. 1-290) (yeast (S. cerevisiae), UniProt P32867 1-290); experiment: single-molecule pull-down
T3 sequence: T1 sequence 1

[4] = biological target: T3, Full length Sso1 WT (a.a. 1-290); experiment: single-vesicle docking
Sec9 (a.a. 416-651) = biological target: B3; experiment: single-vesicle docking

B1: binds [1]; binds [2].

B2: binds [3].

B3: binds [4].

B4: binds (Sec9 (a.a. 416-651)).
